# Test results: patent US11091795B2, “Compositions and methods for diagnosing and treating arrhythmias” (Arizona Board of Regents on Behalf of the University of …, priority 2016, dated 2021)
# “Also recorded” adds a separate entry of the source.
# Key:
# [1] = system: patients with sickle cell disease; conditions: cited from earlier work
# [2] = system: PBMCs isolated and cultured from patients with sickle cell disease; experiment: Heme administration in vitro to PBMCs from sickle cell disease patients; type: cell-based, human; conditions: heme 100 uM, 16 h
# Source text: IL-18, associated with prolonged QTc and mortality, is induced by heme in PBMCs.
# [3] = system: adults with moderate to severe sickle cell disease; conditions: cited from earlier work
# sickle mice = conditions: cited from earlier work
# IL-18 = target: T1, IL-18 (Mus musculus, UniProt P70380); experiment: Chronic (sustained) inhibition of IL-18 with IL-18bp in sickle mice; type: in vivo; conditions: for myocardial fibrosis (Picrosirius Red staining): chronic/sustained (3 weeks) IL-18 inhibition; for diastolic function (change in E/E′, LV filling pressures, on echocardiography): chronic/sustained IL-18 inhibition
# T1 construct: endogenous in cells; host or cells: sickle mice, in vivo (circulating and cardiac IL-18)
# T1 sequence (P70380 36-192): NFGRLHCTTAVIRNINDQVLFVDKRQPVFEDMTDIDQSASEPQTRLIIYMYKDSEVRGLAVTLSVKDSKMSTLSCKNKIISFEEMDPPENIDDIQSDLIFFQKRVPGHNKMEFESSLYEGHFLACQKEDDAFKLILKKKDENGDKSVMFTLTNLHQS
# Description: Based on the association of IL-18 with myocardial fibrosis and diastolic dysfunction, the functional role of IL-18 in the development of myocardial fibrosis and diastolic dysfunction was tested. […] The mechanisms of how IL-18 mediates sickle cardiomyopathy with prolonged repolarization, diastolic dysfunction, and myocardial fibrosis are unclear. Given the absence of significant IL-18 effect on WT mice and the vulnerability of sickle mice, microarray transcript profiling in murine LV tissue between the two mice was performed. A total of 1611 probes (812 annotated genes) were differentially expressed between sickle and WT mice (P≤0.05). […] Additionally, RT-PCR and western blot reveal sickle mice have reduced myocardial KCND2 and KCND3 gene expression levels (FIG. 6B) consistent with increased APD.
# It is contemplated that IL-18/IL-18R signaling implicates Nox4 function in sickle heart arrhythmic response. In an acute setting, it is contemplated that IL-18-mediated Nox4 activation downregulates KCND2/KCND3 expression and associated Ito activity which prolongs APD promoting VT; in a chronic setting, it is contemplated that IL-18 induces Nox4-mediated myocardial apoptosis and subsequent fibrosis resulting in pathologic electrophysiological remodeling enhancing VT vulnerability. Briefly, myocardial action potentials reflect the sequential activation and inactivation of inward depolarizing (Na^+, Ca^2+) and outward repolarizing (K^+) current-carrying ion channels. The K^+ channel function determines membrane potential and refractoriness of the myocardium. […] These observations are coupled with increased nitrotyrosine (ROS marker) levels and p38 MAPK activation (within 5 mins and sustained for 45 mins) in vivo. Reduced Ito is also associated with IL-18-induced prolonged APD, promoting early after depolarizations (EADs) and reentry formation in sickle cell hearts. Several reports have shown direct Nox4 interactions with IL-18R as well as Nox4-medaited p38 MAPK activation in cardiomyocytes resulting in reduced KCND2/KCND3 mRNA expression (and Ito current) (Li et al., 2012. J Mol Cell Cardiol 52:971-977; Zhou et al., 2008. J Mol Cell Cardiol 45:832-838; Zhou et al., 2006. Circ Res 98:1040-1047). Single cell voltage clamp and organ level optical mapping is used to evaluate the downstream effects of IL-18 and Nox4. […] Based on these acute and chronic data, a mutant mouse with cardiac-specific Nox4 genetic depletion in a sickle cell mouse background is generated to functionally validate the role of cardiac Nox4 in sickle cell cardiomyopathy and inducible VT.
# sickle mice hearts = experiment: Optical mapping of ex vivo perfused hearts with exogenous IL-18 in the perfusate; design: species or system mouse
# Source text: (§1) Optical mapping: WT and sickle male mice (12-16 weeks) hearts underwent optical mapping. The optical apparatus has been previously described (Rutledge et al., 2014; supra). The values are presented as the mean±standard deviation. Student t test was used and a P value of <0.05 was considered statistically significant. Sample […] and activation maps with BCL pacing were made for both the control and sickle cell hearts.
# (§2) To establish cause and effect, acute effects of IL-18 on the myocardial electrical phenotype were evaluated further in sickle mice. […] Longer perfusion of IL-18 led to the development of multiple PVCs and short-lived VTs (n=4/4 hearts, FIG. 5E).
# WT mice hearts = experiment: Optical mapping of ex vivo perfused hearts with exogenous IL-18 in the perfusate (WT); design: species or system mouse; conditions: IL-18 via the perfusate (20 ng/min)
# Source text: as §1, §2
# [4] = system: transient outward K+ current (Ito) in sickle mouse cardiomyocytes; experiment: Voltage clamp (patch clamp) of Ito in isolated cardiomyocytes; type: cell-based
# Description: IL-18 reduces Ito in isolated sickle cardiomyocytes. Voltage clamp experiments were performed on fresh cardiomyocytes isolated from a sickle mouse exposed to IL-18 (FIG. 10).
# Patch clamp protocol of Ito: Cardiomyocytes were isolated by standard enzymatic techniques and patch-clamp recordings of Ito were performed with an Axopatch-200B amplifier (Molecular Devices, Sunnyvale, Calif.) as described previously (El Gebeily et al., Pharmacol. 2010 Mar. 10; 629(1-3):96-103). Bath solution was Tyrode solution (mmol/L): 140 NaCl; 5.4 KCl; 1.8 CaCl2; 1 MgCl2; 0.33, Na2HPO4; 10 HEPES, 5.5 glucose (pH adjusted to 7.4 with NaOH). Pipette solution is (mmol/L): 110 K^+-aspartate, 20 KCl, 8 NaCl, 1 MgCl2, 1 CaCk2, 10 BAPTA, 4 K2ATP and 10 HEPES (pH adjusted to 7.2 KOH). Whole-cell voltage-clamp recordings were made using the ruptured patch-clamp technique with a patch-clamp amplifier, Axopatch 200 B (Axon Instruments, Foster City, USA). Pipettes resistances was ˜2 MΩ when filled with pipette solution. Series resistance in the whole-cell mode was compensated. Voltage-clamp currents were low-pass filtered at 1 kHz and digitized at 2 kHz. The total K+ current (Ipeak) was constructed from the current elicited by a series of 5 s test potentials at 10 mV increment from −110 mV to +50 mV from a holding potential of −80 mV at a frequency rate of 0.1 Hz. […] The data were recorded using pClamp 10.6 and analyzed with Clampfit (Axon Instruments, Foster City, USA). Current amplitudes were normalized to the cell capacitance and expressed as pA/pF. All experiments were carried out at room temperature (20-22° C.).
# [5] = system: cardiac Nox4, p38, nitrotyrosine in sickle mice; experiment: Acute IL-18 administration in vivo, cardiac Nox4/p38/nitrotyrosine; design: species or system mouse; conditions: within 5 minutes of IL-18 administration to sickle mice (5 ug/kg)
# Source text: Nitrotyrosine levels are considered a stable byproduct of the presence of peroxynitrite (ROS).
# [6] = short-term administration, tumor necrosis factor-α-induced vaso-occlusion model
# [7] = sustained (3 weeks) IL-18 inhibition
# [8] = IL-18 via the perfusate (20 ng/min), sickle mice hearts
# [9] = sickle mouse cardiomyocytes in the presence of IL-18
molecule,measurement,setting,value
"Nc1ncn([C@H]2C[C@H](O)[C@@H](CO)O2)c(=O)n1 [decitabine, 5-Aza-2′-deoxycytidine]",sickle cell patients responding with an increase in HbF levels,[1]; including patients who had failed to respond to hydroxyurea,100%
same,dose-limiting toxicity,[1]; sickle cell patients,reversible neutropenia
same,increase in total hemoglobin levels,[1]; sickle cell patients,2 g/dL
same,reticulocyte counts,[1]; sickle cell patients,decreased
C=CC1=C(C)c2cc3[n-]c(cc4[n-]c(cc5nc(cc1n2)C(C)=C5C=C)c(C)c4CCC(=O)O)c(CCC(=O)O)c3C.[Fe+2] [heme],IL-18 protein expression,[2],induced IL-18 protein expression
same,IL-18 protein expression,[2]; listed as Heme,induces IL-18 protein expression
NC(=O)NO [hydroxyurea],"frequency of painful crises, episodes of acute chest syndrome, transfusion requirements and hospitalizations",[3]; large multicenter study,marked decrease
same,survival,[3]; patients,improved survival
same,hemolytic anemia at baseline,sickle mice; long-term administration in sickle mice,does not improve
same,animal survival,sickle mice; [6],prolonged animal survival
same,leukocyte recruitment to the microvasculature,sickle mice; [6],significantly altered
"IL-18bp: naturally occurring protein that binds to IL-18 and prevents it from activating its receptor (protein, UniProt Q9Z0M9 29-193, looked up) Interleukin-18-binding protein: TSAPQTTATVLTGSSKDPCSSWSPAVPTKQYPALDVIWPEKEVPLNGTLTLSCTACSRFPYFSILYWLGNGSFIEHLPGRLKEGHTSREHRNTSTWLHRALVLEELSPTLRSTNFSCLFVDPGQVAQYHIILAQLWDGLKTAPSPSQETLSSHSPVSRSAGPGVA",myocardial fibrosis (Picrosirius Red staining),IL-18,reduced
same,myocardial fibrosis (Picrosirius Red staining),IL-18; listed as IL-18 bp,reduced myocardial fibrosis
same,"diastolic function (change in E/E′, LV filling pressures, on echocardiography)",IL-18,improved cardiac function
same,"diastolic function (change in E/E′, LV filling pressures, on echocardiography)",IL-18; listed as IL-18 bp,improved
same,cardiac IL-18R (β subunit) and Nox4 expression,IL-18; [7],reduced cardiac Nox4 and IL-18R expression levels; also recorded: reduced cardiac IL-18R (β subunit) and Nox4 expression
same,myocardial apoptosis,IL-18; [7],reduced myocardial apoptosis
"IL-18: exogenous IL-18 cytokine administered to mouse hearts, mice or cardiomyocytes (protein, UniProt P70380 36-192, looked up) Interleukin-18: NFGRLHCTTAVIRNINDQVLFVDKRQPVFEDMTDIDQSASEPQTRLIIYMYKDSEVRGLAVTLSVKDSKMSTLSCKNKIISFEEMDPPENIDDIQSDLIFFQKRVPGHNKMEFESSLYEGHFLACQKEDDAFKLILKKKDENGDKSVMFTLTNLHQS",action potential duration (APD),sickle mice hearts; [8],prolonged APD; also recorded: APD prolongation
same,"conduction velocity (CV), transverse and longitudinal",sickle mice hearts; [8],reduced trends in CV; also recorded: Trends in slowing
same,rise time of action potentials,sickle mice hearts; [8],Increased rise time
same,electrical effects after 20 minutes of IL-18 administration,sickle mice hearts; after 20 minutes of perfusion,"APD prolongation, atrioventricular block, and a slowed heart rate"
same,development of multiple PVCs and short-lived VTs,"sickle mice hearts; longer perfusion of IL-18, sickle hearts",4/4
same,"changes in APD, CV and rise time",WT mice hearts,no significant changes
same,reduction of Ito,"[4]; in 10 minutes, fresh cardiomyocytes isolated from a sickle mouse",47 % reduction
same,peak Ito,"[4]; sickle group, IL-18 25 ng/mL, at 50 mV",3.1±0.8 pA/pF
same,Ito (in words),[4]; [9],reduce Ito current; also recorded: further reduced
same,fast inactivating Ito,[4]; [9],mostly abolished
same,"cardiac Nox4, p38 activation and nitrotyrosine levels",[5],increases Nox4 levels; also recorded: acutely induces; also recorded: activated
